{"source": "paper PMC8757444", "about": "(ACS Omega, 2021)", "proteins": {"B1": {"name": "Encapsulin from Thermotoga maritima (natural protein)", "chain": "MEFLKRSFAPLTEKQWQEIDNRAREIFKTQLYGRKFVDVEGPYGWEYAAHPLGEVEVLSDENEVVKWGLRKSLPLIELRATFTLDLWELDNLERGKPNVDLSSLEETVRKVAEFEDEVIFRGCEKSGVKGLLSFEERKIECGSTPKDLLEAIVRALSIFSKDGIEGPYTLVINTDRWINFLKEEAGHYPLEKRVEECLRGGKIITTPRIEDALVVSERGGDFKLILGQDLSIGYEDREKDAVRLFITETFTFQVVNPEALILLKF"}}, "biological_target": "the molecule itself", "experiment": "dynamic light scattering", "data": [{"protein": "B1", "values": [{"measurement": "binding result", "value": "binds"}]}]}
